Results reported in PMC6114939.
One block for each substance: values may come before it.

Legend:
p85α [1] = molecular target: p85α (UniProt P27986); assay: co-immunoprecipitation, immunoblot; details: sites Y64
p85α [2] = molecular target: p85α (UniProt P27986); assay: His beads pull-down after kinase assay; details: reference: WT His-PFKP with GST-EGFR; sites Y64

binding against the reference (p85α [1]; reference: WT Flag-rPFKP): lost
Substance: PFKP (platelet isoform of phosphofructokinase 1) (from UniProt Q01813) Flag-rPFKP Y64F

binding against the reference (p85α [2]): lost
Substance: PFKP (platelet isoform of phosphofructokinase 1) (from UniProt Q01813) His-PFKP Y64F with GST-EGFR

binding against the reference (p85α [1]; reference: wild-type tagged PFKP (presumed)): lost
Substance: PFKP (platelet isoform of phosphofructokinase 1) (from UniProt Q01813) Y64F
